{
  "source": "patent US20070117112",
  "key": {"[1]": {"biological_target": "T7 RNA polymerase Y639L/H784A/K378R (LAR) (Bacteriophage T7) (UniProt P00573)", "conditions": "15 mL 2'-OMe NTP transcription, 8 mM MgCl2, 2.5 mM MnCl2"}, "[2]": {"biological_target": "T7 RNA polymerase Y639L/H784A/K378R (LAR) (Bacteriophage T7) (UniProt P00573)", "conditions": "2'-OMe NTPs"}, "[3]": {"biological_target": "T7 RNA polymerase P266L/Y639L/H784A/K378R (LLAR) (Bacteriophage T7) (UniProt P00573)", "conditions": "2'-OMe NTP transcription; at 2.6 ug/ml enzyme (130 at 11, 13 at 0.66, 8.3 at 0.16 ug/ml); template made with 5' poly-A extended primer"}, "[4]": {"biological_target": "T7 RNA polymerase Y639L/H784A/K378R (LAR) (Bacteriophage T7) (UniProt P00573)", "conditions": "2'-OMe NTP transcription; 2.1 ug/ml enzyme, 8 mM MgCl2, 2.5 mM MnCl2, 37 C; template made with 5' poly-A extended primer"}},
  "note": "Where two headings read alike, the source gives them in different places.",
  "data": [
    {"sequence": "TAATACGACTCACTATAGGGAGAGACAAGCTTGGGTCNNNNNNNNNNNNNNNNNNNNNNNNNNNNNNNNNNNNNNNNAGAAGAGAAAGAGAAGTTAATTAAGGATCCTCAG (double strand) [Template 3]", "values": [
      {"measurement": "activity (nmol transcript)", "setting": "[1]", "result": 20.2}
    ]},
    {"sequence": "TAATACGACTCACTATAGGGAGAATTCCGACCACAAGNNNNNNNNNNNNNNNNNNNNNNNNNNNNNNNNNNNNNNNNCATATGTGCGTCTACATGGATCCTCA (double strand) [Template 4]", "values": [
      {"measurement": "activity (nmol transcript)", "setting": "[1]", "result": 27.8}
    ]},
    {"sequence": "TAATACGACTCACTATAGGAGCCTTCCTCCGGANNNNNNNNNNNNNNNNNNNNNNNNNNNNNNNNNNNNNNNNTCCGGTTTCCCGAGCTT (double strand) [Template 6]", "values": [
      {"measurement": "activity (% relative yield)", "setting": "[2]; listed as Pool 2, relative to Pool 4", "result": 88}
    ]},
    {"sequence": "TAATACGACTCACTATAGGGAGACAAGAATAAACGCTCAANNNNNNNNNNNNNNNNNNNNNNNNNNNNNNNNNNNNNNNNTTCGACAGGAGGCTCACAACAGGC (double strand) [Template 7]", "values": [
      {"measurement": "activity (% relative yield)", "setting": "[2]; listed as Pool 3, relative to Pool 4", "result": 130}
    ]},
    {"sequence": "TAATACGACTCACTATAGGGAGAATTCCGACCAGAAGCTTNNNNNNNNNNNNNNNNNNNNNNNNNNNNNNNNNNNNNNNNCATATGTGCGTCTACATGGATCCTCA (double strand) [Template 1]", "values": [
      {"measurement": "activity (nmol transcript)", "setting": "[1]", "result": 18.7}
    ]},
    {"sequence": "TAATACGACTCACTATAGGGGAGTACAATAACCAGACATNNNNNNNNNNNNNNNNNNNNNNNNNNNNNNGGATCGTTACGACTAGCATCGATG (double strand) [Template 8]", "values": [
      {"measurement": "activity (% relative yield)", "setting": "[2]; listed as Pool 4 (reference)", "result": 100}
    ]},
    {"sequence": "TAATACGACTCACTATAGGGGAGTACAATAACGTTCTCGNNNNNNNNNNNNNNNNNNNNNNNNNNNNNNGGATCGTTACGACTAGCATCGATG (double strand) [ARC2118 template library]", "values": [
      {"measurement": "activity (% normalized yield)", "setting": "[3]", "result": 65},
      {"measurement": "activity (% normalized yield)", "setting": "[4]", "result": 100}
    ]},
    {"sequence": "TAATACGACTCACTATAGGGCCTTGTAGCGTGCATTCTTGNNNNNNNNNNNNNNNNNNNNNNNNNNNNNNCTAACATACTCCGAATCTGTCGAA (double strand) [Template 5]", "values": [
      {"measurement": "activity (% relative yield)", "setting": "[2]; listed as Pool 1, relative to Pool 4", "result": 80}
    ]},
    {"sequence": "TAATACGACTCACTATAGGGAGAGCGGAAGCCGTGCTGGGGCCNNNNNNNNNNNNNNNNNNNNNNNNNNNNNNNNNNNNNNNNCATAACCCAGAGGTCGATGGATC (double strand) [Template 2]", "values": [
      {"measurement": "activity (nmol transcript)", "setting": "[1]", "result": 17.4}
    ]}
  ]
}
